# Results as given in patent publication US20200179510A1 (YALE UNIVERSITY, published 2020).
# T1: Recombinant mouse DKK1 protein (R&D) (mouse, UniProt O54908 32-272, limits assumed)
# T1 construct: Bought recombinant protein, coated on the ELISA plate at 20 ng/ml
# T1 sequence (looked up): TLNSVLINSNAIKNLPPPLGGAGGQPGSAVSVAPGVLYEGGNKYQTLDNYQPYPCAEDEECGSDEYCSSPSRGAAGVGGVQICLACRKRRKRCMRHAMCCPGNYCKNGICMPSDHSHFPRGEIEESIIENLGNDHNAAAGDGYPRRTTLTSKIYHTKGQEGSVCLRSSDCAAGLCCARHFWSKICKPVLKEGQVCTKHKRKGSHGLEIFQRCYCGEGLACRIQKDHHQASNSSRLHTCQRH
# Molecular target: T1, Recombinant mouse DKK1 protein (R&D)
# Test: ELISA, recombinant mouse DKK1 coated at 20 ng/ml
# Method: Recombinant mouse DKK2 or DKK1 protein (20 ng/ml, R&D) in a blocking buffer (1% BSA in PBS) was incubated in a 384-well microtiter plate for overnight at 4° C. The plate was washed with PBS twice and incubated with the blocking buffer for one hour at room temperature. The plate was then incubated with the anti-DKK2 5F8 antibody in the blocking buffer for 1 hour at room temperature. After repeatedly washing, the plate was incubated with an HRP-conjugated secondary antibody for 1 hour at room temperature. A chemiluminance substrate (Thermo Fisher 37070) was added to the plate, and the plate was read by an EnVision plate reader.
binder,measurement,value
"Mouse monoclonal antibody to DKK2 (5F8) (antibody, V domains shown, Mouse hybridoma antibody; IgG3 served as its isotype control; also called anti-DKK2 5F8 antibody; anti-DKK2 antibody 5F8) VH: GAELVRPGASVKLSCKASGYSFTNYWMNWVKQRPGQGLEWIGMIHPSDSETRLNQKFKDKATLTVDKSSSTAYMQLSSPTSEDSAVYYCAREGRLGLRSYAMDYWGQGTSVTVSS VL: not shown",binding result,no binding
